Experimental data as given in paper PMC3526283, “DNA-binding determinants promoting NHEJ by human Polµ”.

Columns and labels:
DNA polymerase mu (Polµ) [1] = target: T1, DNA polymerase mu (Polµ) (Homo sapiens, UniProt Q9NP87 1-494); assay: EMSA; EMSA: 50 mM Tris-HCl pH 7.5, 0.1 mg/ml BSA, 1 mM DTT, 4% glycerol, 5 nM DNA, 10 min at 30°C; footprinting: same buffer, 30 nM DNA, 37°C (2.5 mM MgCl2 and 100 µM dNTP where stated); settings: protein: recombinant, tags: pRSETA-hPolµ construct
Polµ-ΔBRCT [2] = target: T2, Polµ-ΔBRCT (Homo sapiens, UniProt Q9NP87 138-494); assay: EMSA; 300 and 600 nM protein; EMSA: 50 mM Tris-HCl pH 7.5, 0.1 mg/ml BSA, 1 mM DTT, 4% glycerol, 5 nM DNA, 10 min at 30°C; footprinting: same buffer, 30 nM DNA, 37°C (2.5 mM MgCl2 and 100 µM dNTP where stated); settings: protein: recombinant; tags: pRSETA construct; label: 32P; 3' overhang 2 nt (text says 3 nt), other end blunt
[3] = target: T3, DNA polymerase beta (Polβ) (Homo sapiens, UniProt P06746 1-335); assay: DNase I footprinting; 100 µM dTTP, 2.5 mM MgCl2; protects positions 36-45; EMSA: 50 mM Tris-HCl pH 7.5, 0.1 mg/ml BSA, 1 mM DTT, 4% glycerol, 5 nM DNA, 10 min at 30°C; footprinting: same buffer, 30 nM DNA, 37°C (2.5 mM MgCl2 and 100 µM)
Polµ-ΔBRCT [4] = target: T2, Polµ-ΔBRCT; assay: DNase I footprinting; protects 10 nt, no downstream extension; EMSA: 50 mM Tris-HCl pH 7.5, 0.1 mg/ml BSA, 1 mM DTT, 4% glycerol, 5 nM DNA, 10 min at 30°C; footprinting: same buffer, 30 nM DNA, 37°C (2.5 mM MgCl2 and 100 µM dNTP where stated); settings: protein: recombinant; tags: pRSETA construct; label: 32P at 5' end of FP-T; 1-nt gap, three strands; template FP-T, primer FP-P, downstream FP-D; otherwise blunt
DNA polymerase mu (Polµ) [5] = target: T1, DNA polymerase mu (Polµ); assay: DNase I footprinting; 100 µM dTTP, 2.5 mM MgCl2; protects positions 36-52; EMSA: 50 mM Tris-HCl pH 7.5, 0.1 mg/ml BSA, 1 mM DTT, 4% glycerol, 5 nM DNA, 10 min at 30°C; footprinting: same buffer, 30 nM DNA, 37°C (2.5 mM MgCl2 and 100 µM dNTP where stated); settings: protein: recombinant; tags: pRSETA-hPolµ construct; label: 32P at 5' end of FP-T; 1-nt gap, three strands; template FP-T, primer FP-P, downstream FP-D; otherwise blunt
Polµ H329G = Polµ H329G (Homo sapiens, UniProt Q9NP87 1-494, H329G); assay: DNase I footprinting; with/without dATP or dTTP; no expansion with nucleotide, no downstream BRCT extension; EMSA: 50 mM Tris-HCl pH 7.5, 0.1 mg/ml BSA, 1 mM DTT, 4% glycerol, 5 nM DNA, 10 min at 30°C; footprinting: same buffer, 30 nM DNA, 37°C (2.5 mM MgCl2 and 100 µM dNTP where stated); settings: protein: recombinant; label: 32P at 5' end of FP-T; 1-nt gap, three strands; template FP-T, primer FP-P, downstream FP-D; otherwise blunt
Polµ R387A = Polµ R387A (Homo sapiens, UniProt Q9NP87 1-494, R387A); assay: DNase I footprinting; footprint expands to primer side with dTTP; downstream extension only partly recovered with dTTP; EMSA: 50 mM Tris-HCl pH 7.5, 0.1 mg/ml BSA, 1 mM DTT, 4% glycerol, 5 nM DNA, 10 min at 30°C; footprinting: same buffer, 30 nM DNA, 37°C (2.5 mM MgCl2 and 100 µM dNTP where stated); settings: protein: recombinant, label: 32P at 5' end of FP-T, 1-nt gap, three strands, template FP-T, downstream FP-D, otherwise blunt
Polµ-ΔBRCT [6] = target: T2, Polµ-ΔBRCT; assay: EMSA; 5'-P assignment inferred: binding undetectable without it; EMSA: 50 mM Tris-HCl pH 7.5, 0.1 mg/ml BSA, 1 mM DTT, 4% glycerol, 5 nM DNA, 10 min at 30°C; footprinting: same buffer, 30 nM DNA, 37°C (2.5 mM MgCl2 and 100 µM dNTP where stated); settings: protein: recombinant; tags: pRSETA construct; label: 32P; 3' overhang 2 nt (text says 3 nt), other end blunt
[7] = target: T3, DNA polymerase beta (Polβ); assay: EMSA; 100 nM protein; EMSA: 50 mM Tris-HCl pH 7.5, 0.1 mg/ml BSA, 1 mM DTT, 4% glycerol, 5 nM DNA, 10 min at 30°C; footprinting: same buffer, 30 nM DNA, 37°C (2.5 mM MgCl2 and 100 µM)
[8] = label: 32P, 3' overhang 2 nt (text says 3 nt), other end blunt
[9] = label: 32P at 5' end of Sp1C, 1-nt gap, three strands, otherwise blunt

T2 sequence (Q9NP87 138-494, stated change not applied): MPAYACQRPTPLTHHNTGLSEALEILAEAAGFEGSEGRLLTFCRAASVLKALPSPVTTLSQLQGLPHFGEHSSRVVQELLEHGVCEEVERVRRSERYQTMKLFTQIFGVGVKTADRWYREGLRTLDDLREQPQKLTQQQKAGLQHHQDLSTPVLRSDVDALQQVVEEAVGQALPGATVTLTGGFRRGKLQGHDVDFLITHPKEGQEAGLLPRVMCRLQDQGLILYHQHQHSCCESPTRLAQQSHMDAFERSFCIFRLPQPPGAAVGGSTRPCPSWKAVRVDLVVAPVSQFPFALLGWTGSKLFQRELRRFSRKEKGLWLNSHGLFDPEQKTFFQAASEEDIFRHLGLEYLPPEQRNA
T1 sequence (Q9NP87 whole entry): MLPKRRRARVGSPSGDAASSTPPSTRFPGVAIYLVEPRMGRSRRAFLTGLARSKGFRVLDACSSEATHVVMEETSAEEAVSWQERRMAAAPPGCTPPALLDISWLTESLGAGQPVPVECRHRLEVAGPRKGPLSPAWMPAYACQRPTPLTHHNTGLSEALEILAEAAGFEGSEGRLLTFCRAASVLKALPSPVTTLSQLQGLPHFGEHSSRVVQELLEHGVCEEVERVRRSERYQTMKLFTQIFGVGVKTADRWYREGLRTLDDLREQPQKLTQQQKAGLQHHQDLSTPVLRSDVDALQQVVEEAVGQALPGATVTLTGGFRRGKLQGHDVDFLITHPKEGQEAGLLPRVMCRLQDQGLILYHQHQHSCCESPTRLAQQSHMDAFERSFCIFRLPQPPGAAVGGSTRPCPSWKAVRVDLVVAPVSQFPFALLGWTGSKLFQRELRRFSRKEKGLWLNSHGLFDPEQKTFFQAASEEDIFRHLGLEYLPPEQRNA
Polµ R387A, sequence (Q9NP87 whole entry R387A): as the sequence (Q9NP87 whole entry) above, with R387A counted along it
Polµ H329G, sequence (Q9NP87 whole entry H329G): as the sequence (Q9NP87 whole entry) above, with H329G counted along it

B1: 3'-protruding end GT/NHEJ-D, 5'-OH (dsDNA)
DNA 1: CCCTCCCTCCCGT
DNA 2: GGGAGGGAGGG
- Kd (DNA polymerase mu (Polµ) [1]; [8]): 400 nM
- binding result (Polµ-ΔBRCT [2]): no binding

B2: footprint 1-nt gap FP-T/FP-P/FP-D, 5'-P (dsDNA)
DNA 1: GGCAGCTTGGATCTTGTCGAAAAACGTCAACATTCGCCTAGGCTTCGGCAATACTGAGGTCTTGTCGAAAAACGTCAACATTGCGTGGCC
DNA 2: GGCCACGCAATGTTGACGTTTTTCGACAAGACCTCAGTAT
DNA 3: GCCGAAGCCTAGGCGAATGTTGACGTTTTTCGACAAGATCCAAGCTGCC
modifications: 5'-phosphate on FP-D (S10)
- binding result [3]: binds
- binding result (Polµ-ΔBRCT [4]): binds
- binding result (DNA polymerase mu (Polµ) [5]): binds
- binding result (Polµ H329G): binds
- binding result (Polµ R387A): binds

B3: 3'-protruding end GT/NHEJ-D, 5'-P (dsDNA)
DNA 1: CCCTCCCTCCCGT
DNA 2: GGGAGGGAGGG
modifications: 5'-phosphate on NHEJ-D (S15)
- Kd (DNA polymerase mu (Polµ) [1]; [8]): 165 nM
- Kd (Polµ-ΔBRCT [6]): 2000 nM

B4: 1-nt gap Sp1C/T28/D12, 5'-OH (dsDNA)
DNA 1: AGAAGTGTATCTCGTACTCACTGTGATC
DNA 2: GATCACAGTGAGTAC
DNA 3: AGATACACTTCT
- Kd (DNA polymerase mu (Polµ) [1]; [9]): 500 nM

B5: 1-nt gap Sp1C/T28/D12, 5'-P (dsDNA)
DNA 1: AGAAGTGTATCTCGTACTCACTGTGATC
DNA 2: GATCACAGTGAGTAC
DNA 3: AGATACACTTCT
modifications: 5'-phosphate on D12 (S3)
- binding result [7]: binds
- Kd (DNA polymerase mu (Polµ) [1]; [9]): 100 nM
